How the values were obtained:
HLA-A*02:03 [1] = experiment: IEDB peptide-MHC binding, purified MHC/direct/fluorescence; filed as Kd, often an IC50 or EC50 that approximates it; ≥ and ≤ were set here for values at or beyond the usual limits of such assays
HLA-A*02:11 [2] = experiment: as above
HLA-A*02:12 [3] = experiment: as above
HLA-A*02:16 = experiment: as above
HLA-A*02:19 [4] = experiment: as above
HLA-A*03:01 [5] = experiment: as above
HLA-A*23:01 = experiment: as above
HLA-A*29:02 [6] = experiment: as above
HLA-A*68:02 = experiment: as above
HLA-A*02:01 [7] = experiment: IEDB peptide-MHC binding, purified MHC/competitive/fluorescence; filed as Kd, often an IC50 or EC50 that approximates it; ≥ and ≤ were set here for values at or beyond the usual limits of such assays
HLA-A*24:03 [8] = experiment: as above; settings: source organism: Orthohantavirus delgaditoense
HLA-A*26:01 [9] = experiment: as above
HLA-A*69:01 [10] = experiment: as above; settings: source organism: Orthohantavirus delgaditoense
HLA-B*15:17 [11] = experiment: as above
HLA-B*18:01 [12] = experiment: as above
HLA-B*27:03 [13] = experiment: as above
HLA-B*39:01 [14] = experiment: as above
HLA-B*46:01 [15] = experiment: as above
HLA-B*51:01 [16] = experiment: as above
HLA-B*57:01 [17] = experiment: as above
HLA-A*02:03 [18] = experiment: as above
HLA-A*02:11 [19] = experiment: as above
HLA-A*02:12 [20] = experiment: as above; settings: source organism: Campylobacter jejuni subsp. jejuni NCTC 11168 = ATCC 700819
HLA-A*02:19 [21] = experiment: as above; settings: source organism: Campylobacter jejuni subsp. jejuni NCTC 11168 = ATCC 700819
HLA-A*03:01 [22] = experiment: as above; settings: source organism: Campylobacter jejuni subsp. jejuni NCTC 11168 = ATCC 700819
HLA-A*29:02 [23] = experiment: as above; settings: source organism: Campylobacter jejuni subsp. jejuni NCTC 11168 = ATCC 700819
HLA-B*15:01 [24] = experiment: as above; settings: source organism: Campylobacter jejuni subsp. jejuni NCTC 11168 = ATCC 700819
HLA-A*02:06 = experiment: as above; settings: source organism: Human immunodeficiency virus 1
HLA-A*02:01 [25] = experiment: IEDB peptide-MHC binding, purified MHC/direct/fluorescence; filed as Kd, often an IC50 or EC50 that approximates it; ≥ and ≤ were set here for values at or beyond the usual limits of such assays; settings: source organism: Giardia lamblia ATCC 50803
HLA-A*24:03 [26] = experiment: as above; settings: source organism: Giardia lamblia ATCC 50803
HLA-A*26:01 [27] = experiment: as above; settings: source organism: Giardia lamblia ATCC 50803
HLA-A*69:01 [28] = experiment: as above; settings: source organism: Giardia lamblia ATCC 50803
HLA-B*15:01 [29] = experiment: as above; settings: source organism: Giardia lamblia ATCC 50803
HLA-B*15:17 [30] = experiment: as above; settings: source organism: Giardia lamblia ATCC 50803
HLA-B*18:01 [31] = experiment: as above; settings: source organism: Giardia lamblia ATCC 50803
HLA-B*27:03 [32] = experiment: as above; settings: source organism: Giardia lamblia ATCC 50803
HLA-B*39:01 [33] = experiment: as above; settings: source organism: Giardia lamblia ATCC 50803
HLA-B*46:01 [34] = experiment: as above; settings: source organism: Giardia lamblia ATCC 50803
HLA-B*51:01 [35] = experiment: as above; settings: source organism: Giardia lamblia ATCC 50803
HLA-B*57:01 [36] = experiment: as above; settings: source organism: Giardia lamblia ATCC 50803
[37] = source organism: Rio Mearim virus
[38] = source organism: Orthohantavirus delgaditoense
[39] = source organism: Campylobacter jejuni subsp. jejuni NCTC 11168 = ATCC 700819
[40] = source organism: Human immunodeficiency virus 1
[41] = source organism: Giardia lamblia ATCC 50803
[42] = source organism: Toxoplasma gondii

DWMERIEDF
Kd (HLA-A*02:03 [1]; [37]): ≥ 20 µM
Kd (HLA-A*02:11 [2]; [37]): ≥ 20 µM
Kd (HLA-A*02:12 [3]; [37]): ≥ 20 µM
Kd (HLA-A*02:16; [37]): ≥ 20 µM
Kd (HLA-A*02:19 [4]; [37]): ≥ 20 µM
Kd (HLA-A*03:01 [5]; [37]): ≥ 20 µM
Kd (HLA-A*23:01; [37]): ≥ 20 µM
Kd (HLA-A*29:02 [6]; [37]): ≥ 20 µM
Kd (HLA-A*68:02; [37]): ≥ 20 µM
Kd (HLA-A*02:01 [7]; [38]): ≥ 20 µM
Kd (HLA-A*24:03 [8]): ≥ 20 µM
Kd (HLA-A*26:01 [9]; [38]): ≥ 20 µM
Kd (HLA-A*69:01 [10]): ≥ 20 µM
Kd (HLA-B*15:17 [11]; [38]): ≥ 20 µM
Kd (HLA-B*18:01 [12]; [38]): ≥ 20 µM
Kd (HLA-B*27:03 [13]; [38]): ≥ 20 µM
Kd (HLA-B*39:01 [14]; [38]): ≥ 20 µM
Kd (HLA-B*46:01 [15]; [38]): ≥ 20 µM
Kd (HLA-B*51:01 [16]; [38]): ≥ 20 µM
Kd (HLA-B*57:01 [17]; [38]): ≥ 20 µM

FTFERSKIK
Kd (HLA-A*02:01 [7]; [39]): ≥ 20 µM
Kd (HLA-A*02:03 [18]; [39]): ≥ 20000 nM
Kd (HLA-A*02:11 [19]; [39]): ≥ 20000 nM
Kd (HLA-A*02:12 [20]): ≥ 20 µM
Kd (HLA-A*02:19 [21]): ≥ 20 µM
Kd (HLA-A*03:01 [22]): 200 nM
Kd (HLA-A*26:01 [9]; [39]): ≥ 20 µM
Kd (HLA-A*29:02 [23]): ≥ 20 µM
Kd (HLA-B*15:01 [24]): ≥ 20 µM
Kd (HLA-B*15:17 [11]; [39]): ≥ 20 µM
Kd (HLA-B*18:01 [12]; [39]): ≥ 20 µM
Kd (HLA-B*27:03 [13]; [39]): ≥ 20 µM
Kd (HLA-B*39:01 [14]; [39]): ≥ 20 µM
Kd (HLA-B*46:01 [15]; [39]): ≥ 20 µM
Kd (HLA-B*51:01 [16]; [39]): ≥ 20 µM
Kd (HLA-B*57:01 [17]; [39]): ≥ 20 µM

LNTVATLY
Kd (HLA-A*02:01 [7]; [40]): 0.0559 µM
Kd (HLA-A*02:03 [18]; [40]): 291 nM
Kd (HLA-A*02:06): 56.4 nM
Kd (HLA-B*15:17 [11]; [40]): 2.75 µM
Kd (HLA-B*39:01 [14]; [40]): ≥ 20 µM

MHYGYNRAN
Kd (HLA-A*02:01 [25]): ≥ 20 µM
Kd (HLA-A*02:03 [1]; [41]): ≥ 20 µM
Kd (HLA-A*02:11 [2]; [41]): ≥ 20 µM
Kd (HLA-A*02:12 [3]; [41]): ≥ 20 µM
Kd (HLA-A*02:16; [41]): ≥ 20 µM
Kd (HLA-A*02:19 [4]; [41]): ≥ 20 µM
Kd (HLA-A*03:01 [5]; [41]): ≥ 20 µM
Kd (HLA-A*23:01; [41]): ≥ 20 µM
Kd (HLA-A*24:03 [26]): ≥ 20 µM
Kd (HLA-A*26:01 [27]): ≥ 20 µM
Kd (HLA-A*29:02 [6]; [41]): ≥ 20 µM
Kd (HLA-A*68:02; [41]): ≥ 20 µM
Kd (HLA-A*69:01 [28]): ≥ 20 µM
Kd (HLA-B*15:01 [29]): ≥ 20 µM
Kd (HLA-B*15:17 [30]): ≥ 20 µM
Kd (HLA-B*18:01 [31]): ≥ 20 µM
Kd (HLA-B*27:03 [32]): ≥ 20 µM
Kd (HLA-B*39:01 [33]): ≥ 20 µM
Kd (HLA-B*46:01 [34]): ≥ 20 µM
Kd (HLA-B*51:01 [35]): ≥ 20 µM
Kd (HLA-B*57:01 [36]): ≥ 20 µM

SVVEENTMA
Kd (HLA-A*02:01 [7]; [42]): ≥ 20 µM
Kd (HLA-A*02:11 [19]; [42]): 183 nM

From the Immune Epitope Database (IEDB)
